Measurements reported in paper PMC2789240, “Comparative structural, kinetic and inhibitor studies of Trypanosoma brucei trypanothione reductase with T. cruzi^” (Molecular and Biochemical Parasitology, 2010).

Tested on: N[C@@H](CCC(=O)N[C@H]1CSSC[C@H](NC(=O)CC[C@H](N)C(=O)O)C(=O)NCC(=O)NCCCNCCCCNC(=O)CNC1=O)C(=O)O
Assay: purified protein, by the assay type
Details: pH 7.4, 25.0 °C

| Substance | Km (other: 340 nm assay) | Km (other: saturating NADPH) |
| --- | --- | --- |
| TbTryR (Trypanosoma brucei brucei TREU927) | 6.9 ± 0.7 µM |  |
| TbTryR (recombinant T. b. brucei trypanothione reductase) (Trypanosoma brucei brucei TREU927) |  | 2.35 ± 0.07 µM |
